Reference: the supplement of paper PMC10567573

B1: KCNG1 (parent)
chain: AVNLSVSTLPSLREEEEQVRAHAP
B2: JUNB (parent)
chain: FVKALDDLHKMNHVTPPNVSLGAT
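Further: lentivirally expressed fusions sorted by FACS into six bins by GFP to DsRed ratio, PSI derived from sequencing read proportions per bin multiplied by bin number.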

Variants of: B1
Assay: protein stability index of a GFP-peptide fusion (GPS, HEK-293T) (PSI 1-6); higher = more stable
Details: c terminus: a fixed tail appended
For GVNLSVSTLPSLREEEEQVRAHAP, the protein stability index was 4.96. TVNLSVSTLPSLREEEEQVRAHAP gave a protein stability index of 5.46. Work on HVNLSVSTLPSLREEEEQVRAHAP yielded a protein stability index of 5.12. YVNLSVSTLPSLREEEEQVRAHAP gave a protein stability index of 2.47. With PVNLSVSTLPSLREEEEQVRAHAP the protein stability index was 5.12. RVNLSVSTLPSLREEEEQVRAHAP showed a protein stability index of 5.31. For EVNLSVSTLPSLREEEEQVRAHAP, the protein stability index was 4.75. With KVNLSVSTLPSLREEEEQVRAHAP the protein stability index was 5.28. In the case of QVNLSVSTLPSLREEEEQVRAHAP, the protein stability index is reported as 4.28. Variant DVNLSVSTLPSLREEEEQVRAHAP has a protein stability index of 5.52. With SVNLSVSTLPSLREEEEQVRAHAP the protein stability index was 4.82. MVNLSVSTLPSLREEEEQVRAHAP showed a protein stability index of 4.61. With WVNLSVSTLPSLREEEEQVRAHAP the protein stability index was 3.81. For CVNLSVSTLPSLREEEEQVRAHAP, the protein stability index was 5. With NVNLSVSTLPSLREEEEQVRAHAP the protein stability index was 5.02. LVNLSVSTLPSLREEEEQVRAHAP showed a protein stability index of 4.14. In the case of IVNLSVSTLPSLREEEEQVRAHAP, the protein stability index is reported as 4.48. Work on FVNLSVSTLPSLREEEEQVRAHAP yielded a protein stability index of 2.57. VVNLSVSTLPSLREEEEQVRAHAP gave a protein stability index of 4.39. AFNLSVSTLPSLREEEEQVRAHAP showed a protein stability index of 4.83. ATNLSVSTLPSLREEEEQVRAHAP showed a protein stability index of 5.23. For APNLSVSTLPSLREEEEQVRAHAP, the protein stability index was 5.57. In the case of ARNLSVSTLPSLREEEEQVRAHAP, the protein stability index is reported as 5.04. Work on AENLSVSTLPSLREEEEQVRAHAP yielded a protein stability index of 5.39. In the case of ALNLSVSTLPSLREEEEQVRAHAP, the protein stability index is reported as 5.04. AGNLSVSTLPSLREEEEQVRAHAP gave a protein stability index of 5.46. ADNLSVSTLPSLREEEEQVRAHAP gave a protein stability index of 5.64. With ASNLSVSTLPSLREEEEQVRAHAP the protein stability index was 5.41. In the case of AKNLSVSTLPSLREEEEQVRAHAP, the protein stability index is reported as 5.63. Work on ANNLSVSTLPSLREEEEQVRAHAP yielded a protein stability index of 5.59. AQNLSVSTLPSLREEEEQVRAHAP gave a protein stability index of 5.33. Variant AWNLSVSTLPSLREEEEQVRAHAP has a protein stability index of 4.1. Work on AMNLSVSTLPSLREEEEQVRAHAP yielded a protein stability index of 4.79. In the case of AANLSVSTLPSLREEEEQVRAHAP, the protein stability index is reported as 5.6. AYNLSVSTLPSLREEEEQVRAHAP showed a protein stability index of 4.93. Variant ACNLSVSTLPSLREEEEQVRAHAP has a protein stability index of 4.98. Variant AHNLSVSTLPSLREEEEQVRAHAP has a protein stability index of 5.54. For AINLSVSTLPSLREEEEQVRAHAP, the protein stability index was 4.89. In the case of AVNHSVSTLPSLREEEEQVRAHAP, the protein stability index is reported as 5.72. Work on AVNCSVSTLPSLREEEEQVRAHAP yielded a protein stability index of 4.88. Variant AVNKSVSTLPSLREEEEQVRAHAP has a protein stability index of 5.24. AVNESVSTLPSLREEEEQVRAHAP showed a protein stability index of 5.73. AVNMSVSTLPSLREEEEQVRAHAP showed a protein stability index of 5.05. Work on AVNSSVSTLPSLREEEEQVRAHAP yielded a protein stability index of 5.05. In the case of AVNISVSTLPSLREEEEQVRAHAP, the protein stability index is reported as 4.8. In the case of AVNASVSTLPSLREEEEQVRAHAP, the protein stability index is reported as 4.86. AVNPSVSTLPSLREEEEQVRAHAP showed a protein stability index of 5.32. AVNVSVSTLPSLREEEEQVRAHAP gave a protein stability index of 5.01. AVNQSVSTLPSLREEEEQVRAHAP gave a protein stability index of 5.44. Variant AVNRSVSTLPSLREEEEQVRAHAP has a protein stability index of 5.03. For AVNFSVSTLPSLREEEEQVRAHAP, the protein stability index was 4.51. AVNNSVSTLPSLREEEEQVRAHAP showed a protein stability index of 5.55. With AVNDSVSTLPSLREEEEQVRAHAP the protein stability index was 5.58. AVNYSVSTLPSLREEEEQVRAHAP showed a protein stability index of 4.98. With AVNTSVSTLPSLREEEEQVRAHAP the protein stability index was 4.9. With AVNGSVSTLPSLREEEEQVRAHAP the protein stability index was 5.24. For AVNWSVSTLPSLREEEEQVRAHAP, the protein stability index was 4.45. Variant AVNLFVSTLPSLREEEEQVRAHAP has a protein stability index of 3.79. AVNLEVSTLPSLREEEEQVRAHAP showed a protein stability index of 5.33. With AVNLIVSTLPSLREEEEQVRAHAP the protein stability index was 3.86. AVNLDVSTLPSLREEEEQVRAHAP gave a protein stability index of 5.24. AVNLCVSTLPSLREEEEQVRAHAP gave a protein stability index of 4.65. Variant AVNLKVSTLPSLREEEEQVRAHAP has a protein stability index of 4.47. Work on AVNLAVSTLPSLREEEEQVRAHAP yielded a protein stability index of 5.48. With AVNLGVSTLPSLREEEEQVRAHAP the protein stability index was 4.93. For AVNLHVSTLPSLREEEEQVRAHAP, the protein stability index was 4.71. With AVILSVSTLPSLREEEEQVRAHAP the protein stability index was 3.05. For AVELSVSTLPSLREEEEQVRAHAP, the protein stability index was 5.73. Variant AVDLSVSTLPSLREEEEQVRAHAP has a protein stability index of 5.26. Work on AVTLSVSTLPSLREEEEQVRAHAP yielded a protein stability index of 4.75. AVQLSVSTLPSLREEEEQVRAHAP gave a protein stability index of 4.77. For AVPLSVSTLPSLREEEEQVRAHAP, the protein stability index was 5.25. Work on AVLLSVSTLPSLREEEEQVRAHAP yielded a protein stability index of 2.41. AVYLSVSTLPSLREEEEQVRAHAP showed a protein stability index of 3.66. In the case of AVFLSVSTLPSLREEEEQVRAHAP, the protein stability index is reported as 3.02. For AVKLSVSTLPSLREEEEQVRAHAP, the protein stability index was 4.43. Variant AVCLSVSTLPSLREEEEQVRAHAP has a protein stability index of 4.45. AVHLSVSTLPSLREEEEQVRAHAP showed a protein stability index of 4.72. Variant AVWLSVSTLPSLREEEEQVRAHAP has a protein stability index of 3.66. AVGLSVSTLPSLREEEEQVRAHAP gave a protein stability index of 5.03. In the case of AVVLSVSTLPSLREEEEQVRAHAP, the protein stability index is reported as 3.06. Work on AVMLSVSTLPSLREEEEQVRAHAP yielded a protein stability index of 4.37. Variant AVALSVSTLPSLREEEEQVRAHAP has a protein stability index of 4.75. Variant AVRLSVSTLPSLREEEEQVRAHAP has a protein stability index of 4.83. For AVSLSVSTLPSLREEEEQVRAHAP, the protein stability index was 4.87.

Variants of: B2
Assay: as above
Details: c terminus: a fixed tail appended
Variant FVKALDDLHKMNHVTPPNWSLGAT has a protein stability index of 3.57. For FVKALDDLHKMNHVTPPNRSLGAT, the protein stability index was 1.9. FVKALDDLHKMNHVTPPNYSLGAT showed a protein stability index of 1.47. FVKALDDLHKMNHVTPPNLSLGAT showed a protein stability index of 1.69. Work on FVKALDDLHKMNHVTPPNMSLGAT yielded a protein stability index of 1.82. FVKALDDLHKMNHVTPPNNSLGAT gave a protein stability index of 1.98. FVKALDDLHKMNHVTPPNSSLGAT showed a protein stability index of 1.63. For FVKALDDLHKMNHVTPPNQSLGAT, the protein stability index was 1.79. With FVKALDDLHKMNHVTPPNPSLGAT the protein stability index was 1.44.
